In patent US20190383824A1 (OREGON HEALTH AND SCIENCE UNIVERSITY, published 2019):

T1: CoilY-EGFP-TM
T1 construct: also called CoilY-GFP
T1 chain: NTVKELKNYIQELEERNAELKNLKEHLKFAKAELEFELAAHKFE

T2: CoilZ-EGFP-TM
T2 construct: CoilZ fused to the N-terminus of EGFP in pDisplay; also called CoilZ-GFP; CoilZ-EGFP-pDisplay
T2 chain: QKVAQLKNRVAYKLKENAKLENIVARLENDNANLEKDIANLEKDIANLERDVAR

T3: CoilY-mCherry-TM
T3 construct: CoilY fused to the N-terminus of a membrane-targeted mCherry construct; on cells or in HEK293FT lysates; also called CoilY-mCherry-pDisplay
T3 chain: T1 chain

T4: mEmerald-CoilE-Actin-C18
T4 construct: Expressed in U-2 OS cells; labelled after fixation and permeabilisation; also called CoilE-tagged actin; not shown: mEmerald, engineered green fluorescent protein; actin (Actin-C18 construct)
T4 chain: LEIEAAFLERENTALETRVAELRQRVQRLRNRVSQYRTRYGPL

T5: Mito-7-CoilE-mEmerald
T5 construct: Expressed in U-2 OS cells; labelled after fixation and permeabilisation; also called mEmerald-CoilE-mito; not shown: mEmerald, engineered green fluorescent protein
T5 chain: T4 chain

T6: H2B-6-CoilE-mEmerald
T6 construct: Expressed in U-2 OS cells; labelled after fixation and permeabilisation; also called mEmerald-CoilE-H2B; not shown: histone H2B (H2B-6 construct); mEmerald, engineered green fluorescent protein
T6 chain: T4 chain

T7: CoilE-DHFR
T7 construct: Lysate and purified protein resolved by SDS-PAGE and blotted on PVDF
T7 chain: T4 chain

B1: CoilY probe peptide (peptide)
peptide: MGSSNTVKELKNYIQELEERNAELKNLKEHLKFAKAELEFELAAHKFEGGGAAACLGKLAAALEHHHHHH
modifications: also: label (AF647, rhodamine or biotin) on Cys55 by maleimide, varies between preparations
notes: Recombinant from E. coli, with linker, reactive cysteine and His6 tag; All differently labelled CoilY probes are kept as one molecule; also called Coil5; Zip5
B2: CoilR probe peptide (peptide)
peptide: MGGSLEIRAAFLRQRNTALRTEVAELEQEVQRLENEVSQYETRYGPLGGGAAALGCLAAALEHHHHHH
modifications: not fully specified
notes: also called CoilR-Cy5; CoilR-biotin
B3: CoilZ probe peptide (peptide)
peptide: MGSSQKVAQLKNRVAYKLKENAKLENIVARLENDNANLEKDIANLEKDIANLERDVARGGGAAACLGKLAAALEHHHHHH
modifications: reporter named in each row (AF647, fluorescein or biotin) conjugated to the reactive cysteine by maleimide chemistry; label state not stated for the biophysical characterisation
notes: Recombinant from E. coli, with linker, reactive cysteine and His6 tag; All differently labelled CoilZ probes are kept as one molecule; also called Coil6; Zip6

Tests used:
[1] = molecular target: T1, CoilY-EGFP-TM; assay: flow cytometry, live U-2 OS cells
Description: (§1) Cells were treated with 500 nM AF647-conjugated probe peptide before analysis, and we gated for EGFP-expressing cells.

[2] = molecular target: T2, CoilZ-EGFP-TM; assay: flow cytometry, live U-2 OS cells, 500 nM probe
Description: as §1

[3] = molecular target: T2, CoilZ-EGFP-TM; assay: flow cytometry, live cells, 300 nM probe
[4] = molecular target: T3, CoilY-mCherry-TM; assay: two-target imaging of cells, confocal microscopy
[5] = molecular target: T4, mEmerald-CoilE-Actin-C18; assay: colocalisation analysis of micrographs, fixed U-2 OS cells
Description: (§2) U-2 OS cells were transfected with mEmerald-actin-C18, mEmerald-CoilE-actin-C18, H2B-6-mEmerald, H2B-6-CoilE-mEmerald, Mito-7-mEmerald, and Mito-7-CoilE-mEmerald and fixed with 4% PFA 24 hours after transfection. […] Cells were fixed and imaged using with line-scanning confocal microscope.
(§3) The cells labeled as in FIG. 15 at low magnification to capture multiple cells.

[6] = molecular target: T5, Mito-7-CoilE-mEmerald; assay: as above
Description: as §2, §3

[7] = molecular target: T6, H2B-6-CoilE-mEmerald; assay: as above
Description: as §2, §3

[8] = molecular target: T8, untagged TfR1 (UniProt P02786 1-760, limits assumed); assay: CLEM of CHO TRVb cells, CoilR-biotin detected by streptavidin-QD655
T8 construct: whole, on cells; Expressed in CHO TRVb cells; control without a coil tag; also called transferrin receptor 1; TfR1-TRVb
T8 sequence (P02786 whole entry): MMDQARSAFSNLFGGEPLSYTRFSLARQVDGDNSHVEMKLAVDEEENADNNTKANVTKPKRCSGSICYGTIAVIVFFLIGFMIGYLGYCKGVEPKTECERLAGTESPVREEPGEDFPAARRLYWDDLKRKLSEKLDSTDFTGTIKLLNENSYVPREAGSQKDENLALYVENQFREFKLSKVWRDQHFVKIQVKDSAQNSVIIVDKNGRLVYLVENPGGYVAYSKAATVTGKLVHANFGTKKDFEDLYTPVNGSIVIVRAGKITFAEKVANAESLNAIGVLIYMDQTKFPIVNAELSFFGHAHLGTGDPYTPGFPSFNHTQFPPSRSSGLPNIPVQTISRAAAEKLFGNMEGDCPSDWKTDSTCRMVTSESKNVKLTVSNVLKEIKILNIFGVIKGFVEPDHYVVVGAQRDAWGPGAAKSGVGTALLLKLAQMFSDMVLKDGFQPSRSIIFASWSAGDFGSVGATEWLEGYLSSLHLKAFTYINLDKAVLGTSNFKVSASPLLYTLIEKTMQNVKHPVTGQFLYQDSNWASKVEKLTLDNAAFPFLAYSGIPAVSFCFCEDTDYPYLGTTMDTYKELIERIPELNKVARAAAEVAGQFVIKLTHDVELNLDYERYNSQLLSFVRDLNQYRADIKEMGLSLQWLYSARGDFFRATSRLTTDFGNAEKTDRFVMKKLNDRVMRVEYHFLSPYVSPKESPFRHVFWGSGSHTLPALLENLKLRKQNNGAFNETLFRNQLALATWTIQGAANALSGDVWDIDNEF
Text: VIP E/R was used for CLEM imaging of TfR1 receptor (FIG. 7). […] This enabled individual cells' locations to be registered relative to the slide so that they may be reimaged again via SEM. After fluorescent cells were mapped, the coverslips were processed for EM imaging.

[9] = molecular target: T3, CoilY-mCherry-TM; assay: fluorescent blot on PVDF after SDS-PAGE
[10] = molecular target: T2, CoilZ-EGFP-TM; assay: two-target imaging of cells, confocal microscopy, streptavidin-Qdot565 detection
[11] = molecular target: T1, CoilY-EGFP-TM; assay: flow cytometry, live U-2 OS cells, 500 nM probe
Description: as §1

[12] = molecular target: T7, CoilE-DHFR; assay: fluorescent blot on PVDF after SDS-PAGE
[13] = molecular target: B1; assay: purified peptides; interferometry is named among the characterisation methods

B1
binding result [1]: no binding (tested: 500 nM) | fold enhancement of AF647 fluorescence [2]: > 40 fold | fold increase in AF647 fluorescence [3]: 35 fold | binding result [4]: no binding (tested: 500 nM)

B2
Pearson's correlation between the mEmerald signal and CoilR-Cy5 [5]: 0.97 | Pearson's correlation between the mEmerald signal and CoilR-Cy5 [6]: 0.89 | Pearson's correlation between the mEmerald signal and CoilR-Cy5 [7]: 0.9 | binding result [8]: no binding (tested: 100 nM) | binding result [9]: no binding

B3
binding result [10]: no binding (tested: 500 nM) | fold enhancement of AF647 fluorescence [11]: 4 fold | binding result [12]: no binding | Kd [13]: 3.6 nM
